Reference: PMC3907550

What was measured:
[1] = molecular target: HA2His6-tagged Arabidopsis ADK (Arabidopsis) (UniProt Q9LZG0)
[2] = molecular target: HA2His6-tagged Arabidopsis ADK (Arabidopsis) (UniProt Q9LZG0); remark: listed apart in the source

UniProt Q9LZG0, sequence (Q9LZG0 whole entry): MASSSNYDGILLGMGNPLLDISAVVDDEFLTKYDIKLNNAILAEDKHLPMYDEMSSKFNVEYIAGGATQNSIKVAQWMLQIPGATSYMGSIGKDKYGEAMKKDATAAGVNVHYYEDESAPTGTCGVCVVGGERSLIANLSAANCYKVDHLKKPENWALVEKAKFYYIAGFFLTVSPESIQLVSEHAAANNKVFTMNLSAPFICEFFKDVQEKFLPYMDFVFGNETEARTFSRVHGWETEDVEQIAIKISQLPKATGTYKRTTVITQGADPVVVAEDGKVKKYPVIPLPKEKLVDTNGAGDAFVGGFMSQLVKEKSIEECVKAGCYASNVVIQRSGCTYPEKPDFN

ADK activity (labeled 5′-AMP from adenosine and γ32P-ATP) with a two-fold molar excess of HA2His6-SnRK1-KD, against ADK+GFP [1]: 6 fold
ADK activity against increasing HA2His6-SnRK1-KD:ADK molar ratio, up to 4∶1 [2]: 90 % of maximum
Substance: HA2His6-tagged SnRK1 kinase domain (SnRK1-KD; amino acids 1-343) (from UniProt P92958 1-343) (domain or fragment)
